Data taken from article PMC9064305.

Target: Human fibrillin-2 recombinant C-terminal half (rFBN2-C) (human) (UniProt P35556)
Assay: SPR; FBN2-Ct amine-coupled to a CM5 chip (1700 RU), ADAMTS6 constructs as analytes; Biacore 3000, 25 °C, 10 mM Hepes pH 7.4, 0.15 M NaCl, 2 mM CaCl2, 0.005% or 0.05% P20, 30 μl/min; steady state affinity method

Sequence of Recombinant human ADAMTS6-4TSR (residues 840-1117) (Q9UKP5 840-1117): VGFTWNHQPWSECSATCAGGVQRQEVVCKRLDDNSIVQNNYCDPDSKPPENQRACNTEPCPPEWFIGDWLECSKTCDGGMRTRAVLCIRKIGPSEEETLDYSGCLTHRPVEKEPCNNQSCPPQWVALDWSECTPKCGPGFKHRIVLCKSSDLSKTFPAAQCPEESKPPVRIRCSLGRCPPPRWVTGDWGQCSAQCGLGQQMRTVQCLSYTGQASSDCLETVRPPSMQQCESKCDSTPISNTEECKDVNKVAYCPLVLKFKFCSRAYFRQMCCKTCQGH
Sequence of Recombinant human ADAMTS6-Ct (residues 558-1117) (Q9UKP5 558-1117): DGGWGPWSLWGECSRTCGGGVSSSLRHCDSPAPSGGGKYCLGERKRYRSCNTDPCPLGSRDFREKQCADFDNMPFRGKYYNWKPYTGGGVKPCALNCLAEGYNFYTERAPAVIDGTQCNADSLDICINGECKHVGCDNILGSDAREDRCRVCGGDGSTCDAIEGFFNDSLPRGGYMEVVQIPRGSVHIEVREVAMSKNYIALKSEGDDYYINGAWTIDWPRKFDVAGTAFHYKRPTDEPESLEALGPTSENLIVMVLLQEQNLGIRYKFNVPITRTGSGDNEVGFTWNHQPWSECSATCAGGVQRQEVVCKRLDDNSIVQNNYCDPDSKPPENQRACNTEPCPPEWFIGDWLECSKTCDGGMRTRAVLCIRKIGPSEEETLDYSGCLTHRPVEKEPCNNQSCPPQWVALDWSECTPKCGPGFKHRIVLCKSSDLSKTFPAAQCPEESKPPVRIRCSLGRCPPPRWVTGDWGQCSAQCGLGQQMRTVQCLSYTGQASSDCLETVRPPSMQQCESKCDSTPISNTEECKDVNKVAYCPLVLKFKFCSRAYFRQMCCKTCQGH
Sequence of Recombinant human ADAMTS6-S4TSR (residues 717-1117) (Q9UKP5 717-1117): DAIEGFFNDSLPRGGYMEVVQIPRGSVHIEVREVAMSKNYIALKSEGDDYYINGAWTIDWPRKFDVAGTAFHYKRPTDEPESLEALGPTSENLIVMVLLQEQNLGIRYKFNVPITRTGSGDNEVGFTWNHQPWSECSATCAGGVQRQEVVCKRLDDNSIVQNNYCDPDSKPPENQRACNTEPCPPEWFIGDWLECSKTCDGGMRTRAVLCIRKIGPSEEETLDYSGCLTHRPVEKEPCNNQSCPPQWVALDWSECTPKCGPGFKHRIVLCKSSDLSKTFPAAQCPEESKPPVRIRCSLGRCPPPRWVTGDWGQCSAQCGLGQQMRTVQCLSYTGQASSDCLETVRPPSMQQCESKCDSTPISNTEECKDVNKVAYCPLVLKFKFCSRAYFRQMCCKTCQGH

Work on “Recombinant human ADAMTS6-4TSR (residues 840-1117) (from UniProt Q9UKP5 840-1117) (domain or fragment)” yielded a Kd of 0.122 µM.

“Recombinant human ADAMTS6-Ct (residues 558-1117) (from UniProt Q9UKP5 558-1117) (domain or fragment)” showed a Kd of 0.436 µM.

Substance “Recombinant human ADAMTS6-S4TSR (residues 717-1117) (from UniProt Q9UKP5 717-1117) (domain or fragment)” has a Kd of 0.114 µM.
